From patent US20170022291A1 (Adimab, published 2017)
Like-named read-outs stand apart in the source and are kept apart here.

B1: N-terminal EGFR::C-terminal HER3 multispecific antibody analog (Analog 3) (bispecific antibody, human IgG1, kappa)
heavy: not shown
light: DIQLTQSPSSVSASVGDRVTITCRASQDISSWLAWYQQKPGKAPKLLIYAASSLQSGVPSRFSGSGSGTDFTLTISSLQPEDFATYYCQQEHDFPWTFGGGTKVEIKRTVAAPSVFIFPPSDEQLKSGTASVVCLLNNFYPREAKVQWKVDNALQSGNSQESVTEQDSKDSTYSLSSTLTLSKADYEKHKVYACEVTHQGLSSPVTKSFNRGEC
notes: IgG-Fab 2+2 format: EGFR VH-CH1-hinge-CH2-CH3-(G4S)3-HER3 VH-CH1, two copies, with four copies of the common light chain; also called N-term-EGFR::C-term-HER3; EGFR-HER3 IgG-Fab
B2: N-terminal HER3::C-terminal EGFR multispecific antibody analog (Analog 4) (bispecific antibody, human IgG1, kappa)
heavy: not shown
light: B1 light
notes: IgG-Fab 2+2 format: HER3 VH-CH1-hinge-CH2-CH3-(G4S)3-EGFR VH-CH1, two copies, with four copies of the common light chain; also called N-term-HER3::C-term-EGFR; HER3-EGFR IgG-Fab
B3: N-terminal-EGFR::C-terminal HER2 multispecific antibody analog (Analog 1) (bispecific antibody)
heavy: not shown
light: DIQLTQSPSTLSASVGDRVTITCRASQAISSWLAWYQQKPGKAPKLLIYDASSLESGVPSRFSGSGSGTEFTLTISSLQPDDFATYYCHQYQSYSWTFGGGTKVEIKRTVAAPSVFIFPPSDEQLKSGTASVVCLLNNFYPREAKVQWKVDNALQSGNSQESVTEQDSKDSTYSLSSTLTLSKADYEKHKVYACEVTHQGLSSPVTKSFNRGEC
notes: IgG-Fab 2+2 format: EGFR VH-CH1-hinge-CH2-CH3-(G4S)3-HER2 VH-CH1, two copies, with four copies of the common light chain; also called N-term-EGF::C-term-HER2; EGFR-HER2 IgG-Fab
B4: N-terminal HER2::C-terminal EGFR multispecific antibody analog (Analog 2) (bispecific antibody, human IgG1, kappa)
heavy: not shown
light: B3 light
notes: IgG-Fab 2+2 format: HER2 VH-CH1-hinge-CH2-CH3-(G4S)3-EGFR VH-CH1, two copies, with four copies of the common light chain; also called N-term-HER2::C-term-EGFR; HER2-EGFR IgG-Fab

Tests used:
[1] = molecular target: T1, Human Epidermal Growth Factor Receptor 3 (HER3), soluble antigen (human, UniProt P21860 20-643, limits assumed); assay: affinity of the HER3 binding region in the IgG-Fab; method not named on the sheet or in the legend
T1 construct: also called b-HER3; b-HER3-HIS

EGFR [2] = molecular target: T2, EGFR (UniProt P00533 25-645, limits assumed); assay: affinity of the EGFR binding region in the IgG-Fab; method not named on the sheet or in the legend
T2 construct: also called Antigen 1

[3] = molecular target: T3, Human Epidermal Growth Factor Receptor 2 (HER2), soluble antigen (human, UniProt P04626 23-652, limits assumed); assay: affinity of the HER2 binding region in the IgG-Fab; method not named on the sheet or in the legend
T3 construct: also called b-HER2; b-HER2-HIS

EGFR [4] = molecular target: T2, EGFR; assay: affinity of the EGFR binding region in the IgG-Fab; method not named on the sheet or in the legend; remark: listed apart in the source

| Binder | Kd [1] | Kd (EGFR [2]) | Kd [3] | Kd (EGFR [4]) |
| --- | --- | --- | --- | --- |
| B1 | 0.049 nM | 0.29 nM | – | – |
| B2 | 0.049 nM | 0.87 nM | – | – |
| B3 | – | – | 8.2 nM | 0.17 nM |
| B4 | – | – | 0.1 nM | 0.47 nM |
